Source: publication doi:10.1101/2021.10.03.462214 (bioRxiv, 2021)

Molecular target: UBg_8UBgg (UniProt P0CG47, G76 deletion)
Assay: cryo-EM structure

B1: Rpn10 (natural protein)
chain: MVLESTMVCVDNSEYMRNGDFLPTRLQAQQDAVNIVCHSKTRSNPENNVGLITLANDCEVLTTLTPDTGRILSKLHTVQPKGKITFCTGIRVAHLALKHRQGKNHKMRIIAFVGSPVEDNEKDLVKLAKRLKKEKVNVDIINFGEEEVNTEKLTAFVNTLNGKDGTGSHLVTVPPGPSLADALISSPILAGEGGAMLGLGASDFEFGVDPSADPELALALRVSMEEQRQRQEEEARRAAAASAAEAGIATTGTEDSDDALLKMTISQQEFGRTGLPDLSSMTEEEQIAYAMQMSLQGAEFGQAESADIDASSAMDTSEPAKEEDDYDVMQDPEFLQSVLENLPGVDPNNEAIRNAMGSLASQATKDGKKDKKEEDKK
binding result: binds
